Measured values: publication PMC11077089, “Molecular basis of A. thaliana KEOPS complex in biosynthesizing tRNA t^6A” (Nucleic Acids Research, 2024)

Substrate: Nc1ncnc2c1ncn2[C@@H]1O[C@H](COP(=O)(O)OP(=O)(O)OP(=O)(O)O)[C@@H](O)[C@H]1O
Assay: NADH-coupled ATPase assay (pyruvate kinase / lactate dehydrogenase), Michaelis-Menten
Assay type: biochemical, Arabidopsis thaliana
Settings: no tRNA, 2 μM protein, 0–50 μM ATP, 5 mM MgCl2, pH 7.5, 25°C, BUD32 site

B1: AtKEOPS (wild-type KEOPS dimer, P2K2B2C2) (Arabidopsis thaliana) (protein)
chain: MDCEENVRDESLVLIKQGAEARVFESTFAGRRSIVKERFSKKYRHPILDAKLTLKRLNAEARCMTKARKLGVCTPVLYAVDTLLHSLTLEYIEGVSVKDIFLEFGTNGVVEERLDDVAAQIGAAIAKLHDGGLAHGDLTTSNMLVRSGTNQLVLIDFGLSVTSTLPEDKAVDLYVLERALLSMHSSCGNVMDRILTAYRKSSKQWSATFNKLAQVRQRGRKRTMIG
notes: reconstituted from KAE1-PCC1-6His and BUD32-CGI121-6His expressed in E. coli; SEC ~200 kDa dimer; some N-terminal KAE1 degradation; with tRNA N6-adenosine threonylcarbamoyltransferase KAE1; EKC/KEOPS complex subunit CGI121; EKC/KEOPS complex subunit PCC1
With B1 the Km was 0.95 ± 0.053 µM and the kcat was 0.019 ± 0.00073 s^–1.
